Measurements reported in patent publication US20190300617A1 (Amgen, published 2019).

B1: Erenumab SE-UHPLC Fraction HMW 1 (antibody, human IgG2, lambda, V domains shown)
VH: QVQLVESGGGVVQPGRSLRLSCAASGFTFSSFGMHWVRQAPGKGLEWVAVISFDGSIKYSVDSVKGRFTISRDNSKNTLFLQMNSLRAEDTAVYYCARDRLNYYDSSGYYHYKYYGMAVWGQGTTVTVSS
VL: QSVLTQPPSVSAAPGQKVTISCSGSSSNIGNNYVSWYQQLPGTAPKLLIYDNNKRPSGIPDRFSGSKSGTSTTLGITGLQTGDEADYYCGTWDSRLSAVVFGGGTKLTVLG
B2: Erenumab SE-UHPLC Fraction Main (antibody, human IgG2, lambda, V domains shown)
VH: QVQLVESGGGVVQPGRSLRLSCAASGFTFSSFGMHWVRQAPGKGLEWVAVISFDGSIKYSVDSVKGRFTISRDNSKNTLFLQMNSLRAEDTAVYYCARDRLNYYDSSGYYHYKYYGMAVWGQGTTVTVSS
VL: QSVLTQPPSVSAAPGQKVTISCSGSSSNIGNNYVSWYQQLPGTAPKLLIYDNNKRPSGIPDRFSGSKSGTSTTLGITGLQTGDEADYYCGTWDSRLSAVVFGGGTKLTVLG
B3: Erenumab SE-UHPLC Fraction HMW 2 (antibody, human IgG2, lambda, V domains shown)
VH: QVQLVESGGGVVQPGRSLRLSCAASGFTFSSFGMHWVRQAPGKGLEWVAVISFDGSIKYSVDSVKGRFTISRDNSKNTLFLQMNSLRAEDTAVYYCARDRLNYYDSSGYYHYKYYGMAVWGQGTTVTVSS
VL: QSVLTQPPSVSAAPGQKVTISCSGSSSNIGNNYVSWYQQLPGTAPKLLIYDNNKRPSGIPDRFSGSKSGTSTTLGITGLQTGDEADYYCGTWDSRLSAVVFGGGTKLTVLG
B4: Erenumab CEX-HPLC Acidic Fraction F2 (antibody, human IgG2, lambda, V domains shown)
VH: QVQLVESGGGVVQPGRSLRLSCAASGFTFSSFGMHWVRQAPGKGLEWVAVISFDGSIKYSVDSVKGRFTISRDNSKNTLFLQMNSLRAEDTAVYYCARDRLNYYDSSGYYHYKYYGMAVWGQGTTVTVSS
VL: QSVLTQPPSVSAAPGQKVTISCSGSSSNIGNNYVSWYQQLPGTAPKLLIYDNNKRPSGIPDRFSGSKSGTSTTLGITGLQTGDEADYYCGTWDSRLSAVVFGGGTKLTVLG
modifications: disulfide isoforms by RP-HPLC: 21.4% IgG2-B, 40.4% IgG2-A/B, 35.8% IgG2-A
B5: Erenumab CEX-HPLC Basic Fraction F9 (antibody, human IgG2, lambda, V domains shown)
VH: QVQLVESGGGVVQPGRSLRLSCAASGFTFSSFGMHWVRQAPGKGLEWVAVISFDGSIKYSVDSVKGRFTISRDNSKNTLFLQMNSLRAEDTAVYYCARDRLNYYDSSGYYHYKYYGMAVWGQGTTVTVSS
VL: QSVLTQPPSVSAAPGQKVTISCSGSSSNIGNNYVSWYQQLPGTAPKLLIYDNNKRPSGIPDRFSGSKSGTSTTLGITGLQTGDEADYYCGTWDSRLSAVVFGGGTKLTVLG
modifications: disulfide isoforms by RP-HPLC: 11.0% IgG2-B, 31.3% IgG2-A/B, 55.9% IgG2-A
B6: Erenumab CEX-HPLC Acidic Fraction F3 (antibody, human IgG2, lambda, V domains shown)
VH: QVQLVESGGGVVQPGRSLRLSCAASGFTFSSFGMHWVRQAPGKGLEWVAVISFDGSIKYSVDSVKGRFTISRDNSKNTLFLQMNSLRAEDTAVYYCARDRLNYYDSSGYYHYKYYGMAVWGQGTTVTVSS
VL: QSVLTQPPSVSAAPGQKVTISCSGSSSNIGNNYVSWYQQLPGTAPKLLIYDNNKRPSGIPDRFSGSKSGTSTTLGITGLQTGDEADYYCGTWDSRLSAVVFGGGTKLTVLG
modifications: disulfide isoforms by RP-HPLC: 11.2% IgG2-B, 55.1% IgG2-A/B, 32.4% IgG2-A
B7: Erenumab CEX-HPLC Basic Fraction F8 (antibody, human IgG2, lambda, V domains shown)
VH: QVQLVESGGGVVQPGRSLRLSCAASGFTFSSFGMHWVRQAPGKGLEWVAVISFDGSIKYSVDSVKGRFTISRDNSKNTLFLQMNSLRAEDTAVYYCARDRLNYYDSSGYYHYKYYGMAVWGQGTTVTVSS
VL: QSVLTQPPSVSAAPGQKVTISCSGSSSNIGNNYVSWYQQLPGTAPKLLIYDNNKRPSGIPDRFSGSKSGTSTTLGITGLQTGDEADYYCGTWDSRLSAVVFGGGTKLTVLG
modifications: disulfide isoforms by RP-HPLC: 2.0% IgG2-B, 23.3% IgG2-A/B, 73.3% IgG2-A
B8: Erenumab CEX-HPLC Main Fraction F6 (antibody, human IgG2, lambda, V domains shown)
VH: QVQLVESGGGVVQPGRSLRLSCAASGFTFSSFGMHWVRQAPGKGLEWVAVISFDGSIKYSVDSVKGRFTISRDNSKNTLFLQMNSLRAEDTAVYYCARDRLNYYDSSGYYHYKYYGMAVWGQGTTVTVSS
VL: QSVLTQPPSVSAAPGQKVTISCSGSSSNIGNNYVSWYQQLPGTAPKLLIYDNNKRPSGIPDRFSGSKSGTSTTLGITGLQTGDEADYYCGTWDSRLSAVVFGGGTKLTVLG
modifications: disulfide isoforms by RP-HPLC: 3.9% IgG2-B, 27.8% IgG2-A/B, 65.5% IgG2-A
B9: Erenumab CEX-HPLC Main Fraction F5 (antibody, human IgG2, lambda, V domains shown)
VH: QVQLVESGGGVVQPGRSLRLSCAASGFTFSSFGMHWVRQAPGKGLEWVAVISFDGSIKYSVDSVKGRFTISRDNSKNTLFLQMNSLRAEDTAVYYCARDRLNYYDSSGYYHYKYYGMAVWGQGTTVTVSS
VL: QSVLTQPPSVSAAPGQKVTISCSGSSSNIGNNYVSWYQQLPGTAPKLLIYDNNKRPSGIPDRFSGSKSGTSTTLGITGLQTGDEADYYCGTWDSRLSAVVFGGGTKLTVLG
modifications: disulfide isoforms by RP-HPLC: 2.9% IgG2-B, 33.9% IgG2-A/B, 62.4% IgG2-A
B10: Erenumab CEX-HPLC Acidic Fraction F4 (antibody, human IgG2, lambda, V domains shown)
VH: QVQLVESGGGVVQPGRSLRLSCAASGFTFSSFGMHWVRQAPGKGLEWVAVISFDGSIKYSVDSVKGRFTISRDNSKNTLFLQMNSLRAEDTAVYYCARDRLNYYDSSGYYHYKYYGMAVWGQGTTVTVSS
VL: QSVLTQPPSVSAAPGQKVTISCSGSSSNIGNNYVSWYQQLPGTAPKLLIYDNNKRPSGIPDRFSGSKSGTSTTLGITGLQTGDEADYYCGTWDSRLSAVVFGGGTKLTVLG
modifications: disulfide isoforms by RP-HPLC: 7.0% IgG2-B, 52.5% IgG2-A/B, 39.4% IgG2-A
B11: Erenumab CEX-HPLC Basic Fraction F7 (antibody, human IgG2, lambda, V domains shown)
VH: QVQLVESGGGVVQPGRSLRLSCAASGFTFSSFGMHWVRQAPGKGLEWVAVISFDGSIKYSVDSVKGRFTISRDNSKNTLFLQMNSLRAEDTAVYYCARDRLNYYDSSGYYHYKYYGMAVWGQGTTVTVSS
VL: QSVLTQPPSVSAAPGQKVTISCSGSSSNIGNNYVSWYQQLPGTAPKLLIYDNNKRPSGIPDRFSGSKSGTSTTLGITGLQTGDEADYYCGTWDSRLSAVVFGGGTKLTVLG
modifications: disulfide isoforms by RP-HPLC: 3.9% IgG2-B, 28.6% IgG2-A/B, 65.4% IgG2-A
B12: Erenumab HIC-HPLC Pre-peak Fraction F1 (antibody, human IgG2, lambda, V domains shown)
VH: QVQLVESGGGVVQPGRSLRLSCAASGFTFSSFGMHWVRQAPGKGLEWVAVISFDGSIKYSVDSVKGRFTISRDNSKNTLFLQMNSLRAEDTAVYYCARDRLNYYDSSGYYHYKYYGMAVWGQGTTVTVSS
VL: QSVLTQPPSVSAAPGQKVTISCSGSSSNIGNNYVSWYQQLPGTAPKLLIYDNNKRPSGIPDRFSGSKSGTSTTLGITGLQTGDEADYYCGTWDSRLSAVVFGGGTKLTVLG
modifications: Asp105 isomerization 0.6%; Asp105 succinimide 0.2%; Asn102 deamidation ND; Leu195/Ser196 cleavage 10.9%; further cleavage sites Leu315/Thr316, Ser197/Val198, Leu192/Tyr193, Gly108/Tyr109, Asp105/Ser106
B13: Erenumab HIC-HPLC Pre-peak Fraction F3 (antibody, human IgG2, lambda, V domains shown)
VH: QVQLVESGGGVVQPGRSLRLSCAASGFTFSSFGMHWVRQAPGKGLEWVAVISFDGSIKYSVDSVKGRFTISRDNSKNTLFLQMNSLRAEDTAVYYCARDRLNYYDSSGYYHYKYYGMAVWGQGTTVTVSS
VL: QSVLTQPPSVSAAPGQKVTISCSGSSSNIGNNYVSWYQQLPGTAPKLLIYDNNKRPSGIPDRFSGSKSGTSTTLGITGLQTGDEADYYCGTWDSRLSAVVFGGGTKLTVLG
modifications: Asp105 isomerization (isoAsp) 19.6%; Asp105 succinimide 12.6%; Asn102 deamidation 1.2%; Leu195/Ser196 cleavage 0.5%
B14: Erenumab HIC-HPLC Pre-peak Fraction F4 (antibody, human IgG2, lambda, V domains shown)
VH: QVQLVESGGGVVQPGRSLRLSCAASGFTFSSFGMHWVRQAPGKGLEWVAVISFDGSIKYSVDSVKGRFTISRDNSKNTLFLQMNSLRAEDTAVYYCARDRLNYYDSSGYYHYKYYGMAVWGQGTTVTVSS
VL: QSVLTQPPSVSAAPGQKVTISCSGSSSNIGNNYVSWYQQLPGTAPKLLIYDNNKRPSGIPDRFSGSKSGTSTTLGITGLQTGDEADYYCGTWDSRLSAVVFGGGTKLTVLG
modifications: Asp105 isomerization (isoAsp) 5.5%; Asp105 succinimide 4.3%; Asn102 deamidation 11.6%; Leu195/Ser196 cleavage 0.4%
B15: Erenumab HIC-HPLC Main Fraction F5 (antibody, human IgG2, lambda, V domains shown)
VH: QVQLVESGGGVVQPGRSLRLSCAASGFTFSSFGMHWVRQAPGKGLEWVAVISFDGSIKYSVDSVKGRFTISRDNSKNTLFLQMNSLRAEDTAVYYCARDRLNYYDSSGYYHYKYYGMAVWGQGTTVTVSS
VL: QSVLTQPPSVSAAPGQKVTISCSGSSSNIGNNYVSWYQQLPGTAPKLLIYDNNKRPSGIPDRFSGSKSGTSTTLGITGLQTGDEADYYCGTWDSRLSAVVFGGGTKLTVLG
modifications: Asp105 isomerization ND; Asp105 succinimide 0.1%; Asn102 deamidation ND; Leu195/Ser196 cleavage 0.3%
B16: Erenumab HIC-HPLC Post-peak Fraction F6 (antibody, human IgG2, lambda, V domains shown)
VH: QVQLVESGGGVVQPGRSLRLSCAASGFTFSSFGMHWVRQAPGKGLEWVAVISFDGSIKYSVDSVKGRFTISRDNSKNTLFLQMNSLRAEDTAVYYCARDRLNYYDSSGYYHYKYYGMAVWGQGTTVTVSS
VL: QSVLTQPPSVSAAPGQKVTISCSGSSSNIGNNYVSWYQQLPGTAPKLLIYDNNKRPSGIPDRFSGSKSGTSTTLGITGLQTGDEADYYCGTWDSRLSAVVFGGGTKLTVLG
modifications: Asp105 isomerization (isoAsp) 13.2%; Asp105 succinimide 0.1%; Asn102 deamidation ND; Leu195/Ser196 cleavage 0.6%
B17: Erenumab HIC-HPLC Pre-peak Fraction F2 (antibody, human IgG2, lambda, V domains shown)
VH: QVQLVESGGGVVQPGRSLRLSCAASGFTFSSFGMHWVRQAPGKGLEWVAVISFDGSIKYSVDSVKGRFTISRDNSKNTLFLQMNSLRAEDTAVYYCARDRLNYYDSSGYYHYKYYGMAVWGQGTTVTVSS
VL: QSVLTQPPSVSAAPGQKVTISCSGSSSNIGNNYVSWYQQLPGTAPKLLIYDNNKRPSGIPDRFSGSKSGTSTTLGITGLQTGDEADYYCGTWDSRLSAVVFGGGTKLTVLG
modifications: Asp105 isomerization (isoAsp) 26.4%; Asp105 succinimide 1.4%; Asn102 deamidation 0.1%; Leu195/Ser196 cleavage 1.0%
B18: Erenumab HIC-HPLC Post-peak Fraction F7 (antibody, human IgG2, lambda, V domains shown)
VH: QVQLVESGGGVVQPGRSLRLSCAASGFTFSSFGMHWVRQAPGKGLEWVAVISFDGSIKYSVDSVKGRFTISRDNSKNTLFLQMNSLRAEDTAVYYCARDRLNYYDSSGYYHYKYYGMAVWGQGTTVTVSS
VL: QSVLTQPPSVSAAPGQKVTISCSGSSSNIGNNYVSWYQQLPGTAPKLLIYDNNKRPSGIPDRFSGSKSGTSTTLGITGLQTGDEADYYCGTWDSRLSAVVFGGGTKLTVLG
modifications: Asp105 isomerization (isoAsp) 2.4%; Asp105 succinimide 0.1%; Asn102 deamidation ND; Leu195/Ser196 cleavage 1.1%

The binders below were run against T1, human CGRP receptor (human, UniProt Q16602 23-461; O60894 27-148) (assay: cell-based or functional assay).
T1 sequence (Q16602 23-461, chain 1 of 2): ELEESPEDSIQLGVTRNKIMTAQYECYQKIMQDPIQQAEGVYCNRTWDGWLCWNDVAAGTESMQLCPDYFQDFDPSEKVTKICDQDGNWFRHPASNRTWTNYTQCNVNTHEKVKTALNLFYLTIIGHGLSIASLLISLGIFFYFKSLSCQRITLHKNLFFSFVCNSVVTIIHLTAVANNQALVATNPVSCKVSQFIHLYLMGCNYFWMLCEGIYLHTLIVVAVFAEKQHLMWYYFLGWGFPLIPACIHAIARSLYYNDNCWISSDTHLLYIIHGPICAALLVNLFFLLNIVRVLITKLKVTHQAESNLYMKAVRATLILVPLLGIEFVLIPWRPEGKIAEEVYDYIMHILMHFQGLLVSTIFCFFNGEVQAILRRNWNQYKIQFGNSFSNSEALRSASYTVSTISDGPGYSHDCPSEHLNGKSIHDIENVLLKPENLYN
T1 sequence (O60894 27-148, chain 2 of 2): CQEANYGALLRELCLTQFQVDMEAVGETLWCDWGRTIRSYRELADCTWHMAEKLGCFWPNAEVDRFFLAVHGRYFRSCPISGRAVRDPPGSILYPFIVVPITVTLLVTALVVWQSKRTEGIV

First: B1
Second: B2
The “% Relative Potency by Cell-Based Bioassay” value (“% Relative Potency” below) of the first is lower: 42% for the first, 97% for the second.

B3 was tested, and the “% Relative Potency” value was 62%.

Molecular target: T1, human CGRP receptor
Experiment: cell-based or functional assay
Remark: another data set of the same source

Going from B4 to B5, the “% Relative Potency” value rises from 58% to 98%.

Compared with B6, B7 is higher in “% Relative Potency” value: 71% for the first, 102% for the second.

Going from B8 to B9, the “% Relative Potency” value rises from 92% to 101%.

Going from B10 to B11, the “% Relative Potency” value rises from 82% to 96%.

Molecular target: T1, human CGRP receptor
Experiment: cell-based or functional assay
Remark: another data set of the same source

First: B12
Second: B13
The “% Relative Potency” value of the first is lower: 33% for the first, 35% for the second.

First: B14
Second: B15
The “% Relative Potency” value of the first is lower: 34% for the first, 107% for the second.

First: B16
Second: B17
The “% Relative Potency” value of the first is higher: 77% for the first, 24% for the second.

For B18, the “% Relative Potency” value was 68%.
